Reference: publication PMC5599542
Each block holds one substance with its values, some of them ahead of it.

Columns and labels:
[1] = target: GRB2 (UniProt P62993); test: FLAG affinity purification, Western blot; settings: reference: wild type
[2] = target: PTPN11/SHP2 (UniProt Q06124); test: FLAG affinity purification, Western blot; settings: reference: wild type; sites Y241,Y263

binding against the reference ([1]; sites Y241): weaker
Substance: MPZL1 (PZR) (from UniProt O95297) Y241F

binding against the reference [2]: lost
Substance: MPZL1 (PZR) (from UniProt O95297) Y241F/Y263F

binding against the reference ([1]; sites Y263): weaker
Substance: MPZL1 (PZR) (from UniProt O95297) Y263F
